Laboratory results from patent US12084522B2, “Peptides, combination of peptides, and cell based medicaments for use in immunotherapy against urinary bladder cancer and other cancers” (Immatics Biotechnologies GmbH, priority 2016, dated 2024).

Target: HLA-A*02:01 (Homo sapiens, UniProt P04439, D140Y/D185E/D98H/E176V/E277Q/G131W/G231S/I119V/I121R/I166T/I218V/L300P/L318F/N151K/N90K/P208A/P217A/Q86G/Q94H/R138H/R169H/T345S)
Assay: MHC binding assay (UV-ligand exchange, β2m ELISA, peptide exchange yield)
Conditions: binding to HLA-A*02:01 ranged by peptide exchange yield (UV-ligand exchange, β2m ELISA)
Text: Candidate peptides for T cell based therapies according to the present invention were further tested for their MHC binding capacity (affinity). The individual peptide-MHC complexes were produced by UV-ligand exchange, where a UV-sensitive peptide is cleaved upon UV-irradiation, and exchanged with the peptide of interest as analyzed. Only peptide candidates that can effectively bind and stabilize the peptide-receptive MHC molecules prevent dissociation of the MHC complexes. To determine the yield of the exchange reaction, an ELISA was performed based on the detection of the light chain (β2 m) of stabilized MHC complexes. The assay was performed as generally described in Rodenko et al. (Rodenko et al., 2006).
96 well MAXISorp plates (NUNC) were coated over night with 2 μg/ml streptavidin in PBS at room temperature, washed 4× and blocked forth at 37° C. in 2% BSA containing blocking buffer. Refolded HLA-A*02:01/MLA-001 monomers served as standards, covering the range of 15-500 ng/ml. Peptide-MHC monomers of the UV-exchange reaction were diluted 100 fold in blocking buffer. Samples were incubated for 1 h at 37° C., washed four times, incubated with 2 ug/ml HRP conjugated anti-β2 m for 1 h at 37° C., washed again and detected with TMB solution that is stopped with […]. Absorption was measured at 450 nm. Candidate peptides that show a high exchange yield (preferably higher than 50%, most preferred higher than 75%) are generally preferred for a generation and production of antibodies or fragments thereof, and/or T cell receptors or fragments thereof, as they show sufficient avidity to the MHC molecules and prevent dissociation of the MHC complexes.

| Peptide exchange | Substance |
| --- | --- |
| +++ (>50 = +++) | 49 (SLIGGTNFV; listed as Homo sapiens) [compound 49] |
| ++ (>20% = ++) | 70 (KLAEISLGV; listed as Homo sapiens) [compound 70] |
| +++ (>50 = +++) | 121 (QLQGYLRSV; listed as Homo sapiens) [compound 121] |
| ++++ (>75% = ++++) | 73 (VLKVFLENV; listed as Homo sapiens) [compound 73] |
| +++ (>50 = +++) | 115 (SLLDFERSL; listed as Homo sapiens) [compound 115] |
| +++ (>50 = +++) | 66 (SLWEENQAL; listed as Homo sapiens) [compound 66] |
| +++ (>50 = +++) | 36 (ALWDEFNQL; listed as Homo sapiens) [compound 36] |
| +++ (>50 = +++) | 102 (GLYEGLDWL; listed as Homo sapiens) [compound 102] |
| +++ (>50 = +++) | 91 (NLDAATYQV; listed as Homo sapiens) [compound 91] |
| ++++ (>75% = ++++) | 18 (SIAAYNPVV; listed as Homo sapiens) [compound 18] |
| +++ (>50 = +++) | 25 (SLDSSGFSL; listed as Homo sapiens) [compound 25] |
| ++++ (>75% = ++++) | 65 (IITDLLRSV; listed as Homo sapiens) [compound 65] |
| +++ (>50 = +++) | 19 (SLATTLTKI; listed as Homo sapiens) [compound 19] |
| +++ (>50 = +++) | 54 (ALNDEINFL; listed as Homo sapiens) [compound 54] |
| ++++ (>75% = ++++) | 67 (FLTPPLLSV; listed as Homo sapiens) [compound 67] |
| ++++ (>75% = ++++) | 43 (FLIESKLLSL; listed as Homo sapiens) [compound 43] |
| +++ (>50 = +++) | 110 (VLFNIDGQGNHV; listed as Homo sapiens) [compound 110] |

| Peptide exchange | Substance |
| --- | --- |
| +++ (>50 = +++) | 94 (ALADGVPVAL; listed as Homo sapiens) [compound 94] |
| ++++ (>75% = ++++) | 12 (GVALTVTGV; listed as Homo sapiens) [compound 12] |
| +++ (>50 = +++) | 129 (YLEPKLTQV; listed as Homo sapiens) [compound 129] |
| +++ (>50 = +++) | 93 (LLDLIQTKV; listed as Homo sapiens) [compound 93] |
| +++ (>50 = +++) | 58 (GLDSSVNVQGSVL; listed as Homo sapiens) [compound 58] |
| ++++ (>75% = ++++) | 132 (YILEGEPGKV; listed as Homo sapiens) [compound 132] |
| +++ (>50 = +++) | 144 (YLAGEAPTL; listed as Homo sapiens) [compound 144] |
| +++ (>50 = +++) | 100 (SLQSFIHGV; listed as Homo sapiens) [compound 100] |
| +++ (>50 = +++) | 92 (ALLDEQQVNVLL; listed as Homo sapiens) [compound 92] |
| +++ (>50 = +++) | 39 (AMASHLTST; listed as Homo sapiens) [compound 39] |
| +++ (>50 = +++) | 98 (YLIGLDPENLAL; listed as Homo sapiens) [compound 98] |
| ++++ (>75% = ++++) | 11 (AMAELRVVV; listed as Homo sapiens) [compound 11] |
| +++ (>50 = +++) | 13 (FLEEKEQAAL; listed as Homo sapiens) [compound 13] |
| +++ (>50 = +++) | 142 (FLGENISNFL; listed as Homo sapiens) [compound 142] |
| ++++ (>75% = ++++) | 78 (FIPDFAVAI; listed as Homo sapiens) [compound 78] |
| +++ (>50 = +++) | 79 (FLDPATPRV; listed as Homo sapiens) [compound 79] |
